From paper PMC7933982 (The Journal of Cell Biology, 2021)

Target: T1, GST-CBD (S. cerevisiae, UniProt P19524 1152-1574)
T1 sequence (looked up): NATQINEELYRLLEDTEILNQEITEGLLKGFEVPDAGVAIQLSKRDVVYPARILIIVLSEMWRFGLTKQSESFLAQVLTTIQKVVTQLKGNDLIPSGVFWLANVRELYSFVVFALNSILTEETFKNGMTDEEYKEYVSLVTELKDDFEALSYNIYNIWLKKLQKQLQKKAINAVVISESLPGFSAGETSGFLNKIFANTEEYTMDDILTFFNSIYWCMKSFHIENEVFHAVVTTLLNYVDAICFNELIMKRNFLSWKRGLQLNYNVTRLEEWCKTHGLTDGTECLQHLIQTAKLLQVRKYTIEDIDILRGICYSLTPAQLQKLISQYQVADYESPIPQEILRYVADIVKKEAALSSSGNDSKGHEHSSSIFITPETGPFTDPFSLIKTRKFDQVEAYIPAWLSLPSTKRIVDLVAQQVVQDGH
Assay: pull-down

B1: 6xHis-Pea2_(221–350) (domain or fragment, S. cerevisiae, UniProt P40091 221-350, looked up)
chain: EKNTSSPPISPNAAAIQEEDSSKKLEELETAFSDLQLAHNFLTKQFENDRAEYVQDIEKLTRTNRELQDKLLNNHSNLSKTEKKLHELEQENKELEKANNKLNSSRHNFGMSSPASSPVTWDPSSPSSVG
  binding result: binds
